Here are results for one molecule from paper PMC6179994, “Structural insights on TRPV5 gating by endogenous modulators” (Nature Communications, 2018).

Series [1] concerns the molecule itself. The series can be described thus: cryo-EM structure; lipid-bound TRPV5 in detergent (DMNG) with 200 µM diC8 PI(4,5)P2; C4 symmetry, 3.9 Å.
Series [2] has as its target T1, rat calmodulin (CaM), calcium-activated (rat, UniProt P0DP29 1-149).
T1 construct: calmodulin, rat; modelled from the N-lobe (residues 6-77) and C-lobe (residues 83-147) of PDB 1CLL; Expressed from the pET 28b vector; The patch clamp experiments used purified CaM from bovine testes bought from Sigma, not this recombinant protein; also called Ca^2+-CaM; source: E. coli Rosetta 2(DE3), purified (phenyl sepharose, AKTA purifier)
The experiment in a line: cryo-EM structure; detergent solubilized TRPV5 (DMNG) incubated 1 h with 10 mM CaCl2 and rat CaM at 1:20 (TRPV5 tetramer:CaM), then SEC; map at 4.4 Å without applied symmetry. The following applies: both partners purified.

Usually stoichiometry N stands for a count of units in the complex or per binding partner.

B1: full-length rabbit TRPV5 (transient receptor potential vanilloid 5) (natural protein, UniProt Q9XSM3 1-730, looked up)
chain: MGACPPKAKGPWAQLQKLLISWPVGEQDWEQYRDRVNMLQQERIRDSPLLQAAKENDLRLLKILLLNQSCDFQQRGAVGETALHVAALYDNLEAATLLMEAAPELAKEPALCEPFVGQTALHIAVMNQNLNLVRALLARGASVSARATGAAFRRSPHNLIYYGEHPLSFAACVGSEEIVRLLIEHGADIRAQDSLGNTVLHILILQPNKTFACQMYNLLLSYDEHSDHLQSLELVPNHQGLTPFKLAGVEGNTVMFQHLMQKRKHVQWTCGPLTSTLYDLTEIDSWGEELSFLELVVSSKKREARQILEQTPVKELVSFKWKKYGRPYFCVLASLYILYMICFTTCCIYRPLKLRDDNRTDPRDITILQQKLLQEAYVTHQDNIRLVGELVTVTGAVIILLLEIPDIFRVGASRYFGQTILGGPFHVIIITYASLVLLTMVMRLTNMNGEVVPLSFALVLGWCSVMYFARGFQMLGPFTIMIQKMIFGDLMRFCWLMAVVILGFASAFHITFQTEDPNNLGEFSDYPTALFSTFELFLTIIDGPANYSVDLPFMYCITYAAFAIIATLLMLNLFIAMMGDTHWRVAQERDELWRAQVVATTVMLERKMPRFLWPRSGICGYEYGLGDRWFLRVENHHDQNPLRVLRYVEAFKCSDKEDGQEQLSEKRPSTVESGMLSRASVAFQTPSLSRTTSQSSNSHRGWEILRRNTLGHLNLGLDLGEGDGEEVYHF
notes: TRPV5, rabbit, full length; tetrameric channel; Eluted from the beads with 1D4 peptide; no removal of the tag is described; source: Saccharomyces cerevisiae, detergent solubilized, purified (1D4 antibody Sepharose beads, SEC on Superose 6)
Take B1: the “stoichiometry N” value in series [1] was determined as 4 subunits. Moreover, in series [2], the binding result is “binds”.
